Measurements published in patent US20090221691A1 (UNIVERSITY OF ROCHESTER, published 2009).

Target: T1, biotinylated Gβ1γ2, wild-type (BAP-rat Gβ1 with Gγ2) (rat, UniProt P54311 1-340; P63212 2-68, biotin on the lysine acceptor residue of the BAP)
T1 construct: immobilized on streptavidin in the assays; also called b-βγ; b-Gβ1γ2; not shown: 20 amino acid biotin acceptor peptide (BAP) fused to the N-terminus
Assay: flow cytometry competition, blocking Gα-Gβγ interactions
Method: Assays were used to determine peptide effects on Gα-Gβγ interactions included competition and dissociation assays (Ghosh, et al. (2003) supra). […] The bead-associated fluorescence was then recorded in a BD Biosciences FACSCALIBUR™ flow cytometer. Data was corrected for background fluorescence and fit with a sigmoid dose response curve using Graph Pad Prism 4.

For SIRKALNILAYPDYD (Free peptide) [SIRK(Gly10Ala)], the IC50 was ~80 µM.
